One test concerns the target T1, ScCdc14^1-449 (S. cerevisiae, UniProt Q00684 1-449).
T1 construct: Expressed from pDEST17; also called Saccharomyces cerevisiae Cdc14 truncation that retains the SLiCE motif; source: E. coli, purified (HisTrap nickel sepharose)
T1 sequence (looked up): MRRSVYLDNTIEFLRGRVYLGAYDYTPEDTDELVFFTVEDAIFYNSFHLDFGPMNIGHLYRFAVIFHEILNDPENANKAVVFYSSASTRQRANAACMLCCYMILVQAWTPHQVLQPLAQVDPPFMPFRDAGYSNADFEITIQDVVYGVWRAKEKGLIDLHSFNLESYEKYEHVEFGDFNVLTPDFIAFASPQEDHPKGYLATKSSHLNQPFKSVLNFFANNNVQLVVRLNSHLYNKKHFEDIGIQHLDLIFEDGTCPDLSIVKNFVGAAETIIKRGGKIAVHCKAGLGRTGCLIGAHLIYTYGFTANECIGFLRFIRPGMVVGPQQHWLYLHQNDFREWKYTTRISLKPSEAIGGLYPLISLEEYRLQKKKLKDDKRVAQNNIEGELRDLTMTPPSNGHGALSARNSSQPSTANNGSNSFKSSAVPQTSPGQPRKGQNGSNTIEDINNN
The conditions noted are these: both partners purified.

For a further test, the target named is T2, ScCdc14^P433A/K435A (S. cerevisiae, UniProt Q00684 1-449, P433A | K435A).
T2 construct: source: E. coli, purified (HisTrap nickel sepharose)
T2 sequence (looked up): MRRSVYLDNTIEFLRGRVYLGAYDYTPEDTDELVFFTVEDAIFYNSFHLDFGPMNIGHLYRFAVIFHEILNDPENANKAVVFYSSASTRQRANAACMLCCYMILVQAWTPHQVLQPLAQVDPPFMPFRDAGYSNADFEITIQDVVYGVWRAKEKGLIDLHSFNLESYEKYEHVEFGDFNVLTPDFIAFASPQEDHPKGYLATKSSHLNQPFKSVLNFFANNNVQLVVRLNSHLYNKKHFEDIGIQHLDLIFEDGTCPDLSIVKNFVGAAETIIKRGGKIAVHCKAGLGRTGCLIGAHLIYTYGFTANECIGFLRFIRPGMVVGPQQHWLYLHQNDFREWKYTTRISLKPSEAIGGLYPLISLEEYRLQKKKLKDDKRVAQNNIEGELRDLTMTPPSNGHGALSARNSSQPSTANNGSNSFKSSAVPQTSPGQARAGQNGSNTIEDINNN
Particulars: both partners purified.

Starred links: 1 amine or outer side, 2 acyl side, 3 side chain; linkers in the order of their positions; H or OH if unused. Non-standard residues stand in square brackets, D forms with d. No end group written: not given here. pCF2‑Ser = (α,α-difluoromethylene)phosphonoserine, O=C([C@H](CC(F)(F)P(=O)(O)O)N[*:1])[*:2]

As a reminder, the Kd is the concentration at which binding is half-saturated. As for EV[pCF2‑Ser]PTKR [EV(pCF2-Ser)PTKR], the Kd in the test with ScCdc14^1-449 was 6 ± 2 µM; with ScCdc14^P433A/K435A, 13 ± 4 µM.

Source of the values: paper PMC11407943, “Cdc14 phosphatases use an intramolecular pseudosubstrate motif to stimulate and regulate catalysis” (The Journal of Biological Chemistry, 2024).
